Experimental data reported in patent EP1736482A1 (INSERM (Institut National de la Santé et de la Recherche …, dated 2006).

Molecular target: T1, recombinant human 4-1BB-Fc chimera (R&D Systems) (human, UniProt Q07011 24-186)
T1 construct: Bought; Covalently coupled to a CM5 chip at 500 resonance units; also called 4-IBB-Fc; recombinant 4-1BB; Fc part of the bought chimera not given, not described
Experiment: SPR (BIAcore 2000), 4-1BB-Fc coupled to CM5 chip, ligand in flow, 25°C

B1: FLAG-4-1BBL (Alexis), FLAG peptide coupled to the TNF homology domain of human 4-1BBL through an undefined 11 aa linker (ligand, UniProt P41273 93-254, looked up)
chain: AQLVAQNVLLIDGPLSWYSDPGLAGVSLTGGLSYKEDTKELVVAKAGVYYVFFQLELRRVVAGEGSGSVSLALHLQPLRSAAGAAALALTVDLPPASSEARNSAFGFQGRLLHLSAGQRLGVHLHTEARARHAWQLTQGATVLGLFRVTPEIPAGLPSPRSE
notes: domain: TNF homology domain (THD); Bought from Alexis, produced in HEK293; also called FLAG-tagged 4-1BBL; soluble FLAG-4-1BBL; not shown: FLAG peptide (8aa); undefined 11aa linker
B1 was tested, and the Kd was 55.2 nM, the “fold lower association rate (kon) against WT AviTag-4-1BBL” value was 30 fold and the koff was 0.00037 s⁻¹. It also gave a kon of 6700 M⁻¹ s⁻¹.
